# Results: PMC5969521, “Actin-related proteins regulate the RSC chromatin remodeler by weakening intramolecular interactions of the Sth1 ATPase” (Communications Biology, 2018)
# T1: Rtt102-Arp7/9 (Saccharomyces cerevisiae, UniProt Q12406)
# T1 construct: heterotrimer reconstituted from Rtt102 and Arp7/9 (2:1 mix, gel filtration); Rtt102 157 aa; with Actin-like protein ARP9; Regulator of Ty1 transposition protein 102
# T1 sequence (Q12406 1-477): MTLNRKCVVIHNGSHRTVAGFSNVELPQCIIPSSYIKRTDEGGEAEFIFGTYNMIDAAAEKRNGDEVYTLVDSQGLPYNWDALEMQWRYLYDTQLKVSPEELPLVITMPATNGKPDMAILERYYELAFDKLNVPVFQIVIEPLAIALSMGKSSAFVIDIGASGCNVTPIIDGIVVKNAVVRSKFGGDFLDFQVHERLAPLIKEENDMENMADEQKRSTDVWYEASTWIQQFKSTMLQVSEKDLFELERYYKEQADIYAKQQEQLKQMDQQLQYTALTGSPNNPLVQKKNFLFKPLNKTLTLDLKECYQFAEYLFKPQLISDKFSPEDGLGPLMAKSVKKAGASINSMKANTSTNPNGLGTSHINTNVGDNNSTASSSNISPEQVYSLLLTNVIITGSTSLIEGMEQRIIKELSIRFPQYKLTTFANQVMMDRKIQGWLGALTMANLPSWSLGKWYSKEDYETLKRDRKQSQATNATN
# T1 sequence (Q05123 1-467 partner): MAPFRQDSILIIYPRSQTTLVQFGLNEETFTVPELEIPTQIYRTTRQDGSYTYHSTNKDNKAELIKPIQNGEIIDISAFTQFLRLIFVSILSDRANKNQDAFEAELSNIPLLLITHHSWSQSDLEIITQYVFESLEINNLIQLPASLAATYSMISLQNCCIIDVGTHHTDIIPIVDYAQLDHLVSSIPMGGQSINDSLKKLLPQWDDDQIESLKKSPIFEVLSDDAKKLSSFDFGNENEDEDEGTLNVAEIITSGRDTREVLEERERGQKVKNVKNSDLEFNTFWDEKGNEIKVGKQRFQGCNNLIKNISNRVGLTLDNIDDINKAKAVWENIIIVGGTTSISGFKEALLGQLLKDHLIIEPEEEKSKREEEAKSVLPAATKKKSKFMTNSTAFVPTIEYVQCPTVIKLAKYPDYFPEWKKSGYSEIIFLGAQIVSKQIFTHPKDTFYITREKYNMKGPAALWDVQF
# T1 sequence (P53330 1-157 partner): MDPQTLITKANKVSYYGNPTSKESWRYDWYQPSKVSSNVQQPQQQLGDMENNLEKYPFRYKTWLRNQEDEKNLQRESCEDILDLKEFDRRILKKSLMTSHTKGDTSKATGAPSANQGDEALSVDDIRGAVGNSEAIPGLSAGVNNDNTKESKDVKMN
# B1: fluorescein DNA duplex (dsDNA)
# DNA 1: TCCATGTCCATGGATACGTGG
# DNA 2: TCCACGTATCCATGGACATGGA
# How the values were obtained:
# [1] = biological target: Sth1(365-1097) P1swap (budding yeast; Rad54 segment from S. solfataricus) (UniProt P32597); assay: fluorescence anisotropy; settings: nucleotide state not visible in material; Anisotropy: 20 mM HEPES pH 7.5, 50 mM NaCl, 2.5 mM MgCl2, 5% glycerol, 1 mM DTT, 0.1 mg/mL BSA, 1 mM AMPPNP or ADP, 50 nM DNA, 20 C; EMSA: 20 mM HEPES pH 7.5 …
# [2] = biological target: nucleosome (Xenopus laevis histone octamer on 601 nucleosomal DNA) (Xenopus laevis); assay: native gel or EMSA; native gel shift, 1 mM ADP; nucleosomes held constant, Sth1 constructs up to 10 μM; 20 mM HEPES pH 7.5, 50 mM NaCl, 5% glycerol, 1 mM DTT, 0.1 mg/mL BSA, 1 mM MgCl2; 30 min room temperature, gel at 4 °C; apparent KD from a single-site hyperbolic fit
# [3] = biological target: nucleosome (Xenopus laevis histone octamer on 601 nucleosomal DNA) (Xenopus laevis); assay: native gel or EMSA; native gel shift, 1 mM AMPPNP; nucleosomes held constant, Sth1 constructs up to 10 μM; 20 mM HEPES pH 7.5, 50 mM NaCl, 5% glycerol, 1 mM DTT, 0.1 mg/mL BSA, 1 mM MgCl2; 30 min room temperature, gel at 4 °C; apparent KD from a single-site hyperbolic fit
# [4] = biological target: Rtt102-Arp7/9-bound His-HSA–pHSA fragment (budding yeast) (UniProt P32597); assay: pull-down; TEV cleavage and co-purification assay: purified Sth1 constructs at 6 μM (±Arp7/9 and Rtt102) cut with TEV protease overnight, His-tagged N-terminal fragment held on Ni-NTA resin; 20 mM HEPES pH 7.5, 500 mM NaCl, 5% glycerol, 25 mM imidazole, 1 mM MgCl2, 0.1 mM AMPPNP; eluted with 250 mM imidazole; SDS-PAGE, Coomassie
# Rtt102-Arp7/9 = biological target: T1, Rtt102-Arp7/9; assay: X-ray crystallography ([…] Å); type: binding; settings: pre-incubated with 1 mM ATP; ATP bound in nucleotide cleft of Arp7, not Arp9; no cation seen; not hydrolysed
# [5] = biological target: T2, Rtt102-Arp7/9-Sth1_301–1097 (Saccharomyces cerevisiae, UniProt P32597); assay: phosphate release (MESG/purine nucleoside phosphorylase, […] nm); type: biochemical; settings: 1 mM ATP, plasmid DNA, 2.5 mM MgCl2, pH 7.0, 22 °C; hydrolysis by the Sth1 subunit
# T2 construct: gene STH1; quaternary complex; Sth1 residues 301-1097 (HSA, pHSA, ATPase domains), Ni-NTA purified; with Actin-related protein 7; Actin-like protein ARP9; Regulator of Ty1 transposition protein 102
# Sth1(301-1097) [6] = biological target: T3, Sth1(301-1097) (budding yeast, UniProt P32597 301-1097); assay: EMSA; settings: apparent Kd, Anisotropy: 20 mM HEPES pH 7.5, 50 mM NaCl, 2.5 mM MgCl2, 5% glycerol, 1 mM DTT, 0.1 mg/mL BSA, 1 mM AMPPNP or ADP, 50 nM DNA, 20 C, EMSA: 20 mM HEPES pH 7.5 …
# [7] = biological target: T4, Rtt102;Arp7;Arp9;Sth1(301-1097) (budding yeast;budding yeast;budding …, UniProt P53330;Q12406;Q05123;P32597 1-157;1-477;1-467;301-1097, |||); assay: EMSA; settings: apparent Kd, Anisotropy: 20 mM HEPES pH 7.5, 50 mM NaCl, 2.5 mM MgCl2, 5% glycerol, 1 mM DTT, 0.1 mg/mL BSA, 1 mM AMPPNP or ADP, 50 nM DNA, 20 C, EMSA: 20 mM HEPES pH 7.5 …
# Target sequence in this assay (P32597 301-1097, one chain of several): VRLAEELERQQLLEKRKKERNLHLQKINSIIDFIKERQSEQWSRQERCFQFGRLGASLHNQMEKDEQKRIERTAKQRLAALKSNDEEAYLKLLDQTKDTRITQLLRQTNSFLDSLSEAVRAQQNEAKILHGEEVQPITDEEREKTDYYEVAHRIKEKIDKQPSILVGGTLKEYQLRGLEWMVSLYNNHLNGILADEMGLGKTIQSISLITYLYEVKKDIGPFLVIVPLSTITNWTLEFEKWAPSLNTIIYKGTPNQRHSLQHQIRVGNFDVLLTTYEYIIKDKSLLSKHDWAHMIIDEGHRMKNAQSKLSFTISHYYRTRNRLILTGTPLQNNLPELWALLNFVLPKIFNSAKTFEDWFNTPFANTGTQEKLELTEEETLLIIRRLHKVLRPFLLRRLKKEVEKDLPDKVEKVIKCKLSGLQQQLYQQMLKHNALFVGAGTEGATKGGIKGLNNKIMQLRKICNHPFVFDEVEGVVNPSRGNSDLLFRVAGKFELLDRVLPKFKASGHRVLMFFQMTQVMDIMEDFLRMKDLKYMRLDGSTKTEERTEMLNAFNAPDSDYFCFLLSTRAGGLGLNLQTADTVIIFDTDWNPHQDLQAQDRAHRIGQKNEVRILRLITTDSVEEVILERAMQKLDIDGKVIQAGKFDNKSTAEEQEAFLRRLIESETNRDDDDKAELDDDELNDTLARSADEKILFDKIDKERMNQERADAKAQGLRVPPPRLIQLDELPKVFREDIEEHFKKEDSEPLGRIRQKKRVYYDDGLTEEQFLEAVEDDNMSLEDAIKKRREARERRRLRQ
# Sth1(301-1097) [8] = biological target: T3, Sth1(301-1097); assay: fluorescence anisotropy; 1 mM AMPPNP; Anisotropy: 20 mM HEPES pH 7.5, 50 mM NaCl, 2.5 mM MgCl2, 5% glycerol, 1 mM DTT, 0.1 mg/mL BSA, 1 mM AMPPNP or ADP, 50 nM DNA, 20 C; EMSA: 20 mM HEPES pH 7.5, 50 mM NaCl, 1 mM MgCl2, 5% glycerol, 1 mM DTT, 0.1 mg/mL BSA, 1 mM ADP or AMPPNP, room temperature; settings: protein: recombinant; label: 5'-fluorescein; strands 21 and 22 nt: 21 bp with 1 nt 5' overhang (T) on strand 2
# [9] = biological target: T4, Rtt102;Arp7;Arp9;Sth1(301-1097); assay: as above; settings: protein: recombinant;recombinant;recombinant;recombinant; copies: 1;1;1;1; label: 5'-fluorescein; strands 21 and 22 nt: 21 bp with 1 nt 5' overhang (T) on strand 2
# Target sequence in this assay (P32597 301-1097, chain 4 of 4, one chain of several): as the sequence (P32597 301-1097, one chain of several) above
# Arp7;Arp9;Sth1(301-1097) = Arp7;Arp9;Sth1(301-1097) (budding yeast;budding yeast;budding …, UniProt Q12406;Q05123;P32597 1-477;1-467;301-1097, ||); assay: as above; settings: protein: recombinant;recombinant;recombinant; copies: 1;1;1; label: 5'-fluorescein; strands 21 and 22 nt: 21 bp with 1 nt 5' overhang (T) on strand 2
# Sth1(365-1097) = Sth1(365-1097) (budding yeast, UniProt P32597 365-1097); assay: fluorescence anisotropy; nucleotide state not visible in material; Anisotropy: 20 mM HEPES pH 7.5, 50 mM NaCl, 2.5 mM MgCl2, 5% glycerol, 1 mM DTT, 0.1 mg/mL BSA, 1 mM AMPPNP or ADP, 50 nM DNA, 20 C; EMSA: 20 mM HEPES pH 7.5, 50 mM NaCl, 1 mM MgCl2, 5% glycerol, 1 mM DTT, 0.1 mg/mL BSA, 1 mM ADP or AMPPNP, room temperature; settings: protein: recombinant; label: 5'-fluorescein; strands 21 and 22 nt: 21 bp with 1 nt 5' overhang (T) on strand 2
# Sth1(365-1097), sequence (P32597 365-1097): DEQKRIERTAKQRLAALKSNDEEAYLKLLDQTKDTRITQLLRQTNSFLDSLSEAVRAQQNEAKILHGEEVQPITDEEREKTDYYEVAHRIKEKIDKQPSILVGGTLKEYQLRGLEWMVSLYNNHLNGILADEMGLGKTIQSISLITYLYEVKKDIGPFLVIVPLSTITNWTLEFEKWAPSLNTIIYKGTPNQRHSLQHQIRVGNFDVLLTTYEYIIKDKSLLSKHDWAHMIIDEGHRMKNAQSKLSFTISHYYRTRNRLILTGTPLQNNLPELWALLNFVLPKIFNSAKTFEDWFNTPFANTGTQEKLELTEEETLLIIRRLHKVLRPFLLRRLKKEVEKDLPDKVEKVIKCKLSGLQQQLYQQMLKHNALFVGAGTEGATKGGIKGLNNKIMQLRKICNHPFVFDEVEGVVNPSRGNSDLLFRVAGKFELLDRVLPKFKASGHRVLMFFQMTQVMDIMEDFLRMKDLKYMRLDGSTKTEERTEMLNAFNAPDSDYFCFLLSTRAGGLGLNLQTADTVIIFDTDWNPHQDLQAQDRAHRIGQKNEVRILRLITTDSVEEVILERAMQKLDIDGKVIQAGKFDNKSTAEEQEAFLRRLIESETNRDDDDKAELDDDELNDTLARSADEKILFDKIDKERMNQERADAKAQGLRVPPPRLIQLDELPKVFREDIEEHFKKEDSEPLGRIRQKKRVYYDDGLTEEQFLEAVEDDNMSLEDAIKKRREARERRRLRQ
# T3 sequence (P32597 301-1097): as the sequence (P32597 301-1097, one chain of several) above
# Arp7;Arp9;Sth1(301-1097), sequence (P32597 301-1097, chain 3 of 3, one chain of several): as the sequence (P32597 301-1097, one chain of several) above
# Sth1(365-1097) P1swap (budding yeast; Rad54 segment from S. solfataricus), sequence (P32597 whole entry): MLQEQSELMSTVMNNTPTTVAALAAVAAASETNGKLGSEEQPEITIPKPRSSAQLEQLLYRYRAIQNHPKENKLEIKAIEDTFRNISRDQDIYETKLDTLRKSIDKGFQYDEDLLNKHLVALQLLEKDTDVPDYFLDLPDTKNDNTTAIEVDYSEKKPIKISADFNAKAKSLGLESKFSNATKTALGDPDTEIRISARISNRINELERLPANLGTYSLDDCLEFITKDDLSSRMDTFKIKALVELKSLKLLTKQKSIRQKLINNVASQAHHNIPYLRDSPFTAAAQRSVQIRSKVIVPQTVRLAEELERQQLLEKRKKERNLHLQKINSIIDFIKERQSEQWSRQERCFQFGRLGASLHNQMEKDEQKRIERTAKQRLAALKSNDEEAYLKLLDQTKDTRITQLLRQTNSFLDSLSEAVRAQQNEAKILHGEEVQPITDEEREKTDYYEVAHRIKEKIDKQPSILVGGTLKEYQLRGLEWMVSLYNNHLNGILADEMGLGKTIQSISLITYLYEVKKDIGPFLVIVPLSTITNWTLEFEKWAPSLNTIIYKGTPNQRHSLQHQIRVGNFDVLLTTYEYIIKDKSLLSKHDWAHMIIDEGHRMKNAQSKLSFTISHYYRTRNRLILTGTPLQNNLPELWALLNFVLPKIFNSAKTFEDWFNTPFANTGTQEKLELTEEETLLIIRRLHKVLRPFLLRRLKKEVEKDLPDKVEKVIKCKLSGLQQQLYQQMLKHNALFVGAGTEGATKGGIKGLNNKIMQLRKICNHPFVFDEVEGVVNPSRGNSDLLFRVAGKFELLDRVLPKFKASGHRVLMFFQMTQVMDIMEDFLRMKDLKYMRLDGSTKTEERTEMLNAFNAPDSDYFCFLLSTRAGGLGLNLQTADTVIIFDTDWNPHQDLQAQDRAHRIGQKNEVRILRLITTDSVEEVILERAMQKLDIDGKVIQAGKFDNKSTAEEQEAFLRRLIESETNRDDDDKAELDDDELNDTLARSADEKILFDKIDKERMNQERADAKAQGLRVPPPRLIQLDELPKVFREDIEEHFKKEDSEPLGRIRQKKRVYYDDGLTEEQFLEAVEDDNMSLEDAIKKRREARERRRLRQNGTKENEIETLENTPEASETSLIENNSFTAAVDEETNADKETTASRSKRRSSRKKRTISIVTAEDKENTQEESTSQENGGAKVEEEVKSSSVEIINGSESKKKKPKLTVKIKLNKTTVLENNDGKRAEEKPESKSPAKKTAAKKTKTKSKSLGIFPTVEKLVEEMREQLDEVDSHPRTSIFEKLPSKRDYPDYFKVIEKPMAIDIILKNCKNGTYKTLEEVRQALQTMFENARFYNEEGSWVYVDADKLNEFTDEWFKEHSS
# T2 sequence (P32597 301-1097, one chain of several): as the sequence (P32597 301-1097, one chain of several) above
molecule,measurement,setting,value
TCCATGTCCATGGATACGTGG / TCCACGTATCCATGGACATGGA [fluorescein DNA duplex],Kd,[1],520 nM
Rtt102-Arp7/9-Sth1_(301–1097) quaternary complex (from UniProt P32597 301-1097; Q12406 1-477; Q05123 1-467; P53330 1-157),Kd,[2],510 nM
same,Kd,[3],460 nM
untagged ATPase fragment of TEV-cleaved Sth1_(301–1097) or Sth1_(365–1097) (from UniProt P32597 432-1097) (domain or fragment),percent of the ATPase lost after passage through the Ni-NTA column,[4],45%
Nc1ncnc2c1ncn2[C@@H]1O[C@H](COP(=O)(O)OP(=O)(O)OP(=O)(O)O)[C@@H](O)[C@H]1O [ATP],X-ray crystallography (3.25 Å),Rtt102-Arp7/9,showed the presence of ATP in the nucleotide-binding cleft of Arp7 but not Arp9
same,"phosphate release (MESG/purine nucleoside phosphorylase, 360 nm)",[5],displays strong DNA-dependent ATPase activity catalyzed by subunit Sth1
601 nucleosome (Xenopus laevis core histone octamer),Kd,Sth1(301-1097) [6]; 1 mM ADP,670 nM
same,Kd,Sth1(301-1097) [6]; 1 mM AMPPNP,670 nM
same,Kd,[7]; 1 mM ADP,510 nM
same,Kd,[7]; 1 mM AMPPNP,460 nM
Sth1_(301–1097) (from UniProt P32597 301-1097) (domain or fragment),Kd,[2],670 nM
same,Kd,[3],670 nM
B1,Kd,Sth1(301-1097) [8],280 nM
same,Kd,[9],4200 nM
same,Kd,Arp7;Arp9;Sth1(301-1097),3000 nM
same,Kd,Sth1(365-1097),700 ± 10 nM
